These results are taken from FireProtDB (doi:10.1016/s0301-4622(99)00119-2).

To fix the notation:
B1: Cytochrome b5, P00171 (parent)
chain: MAEESSKAVKYYTLEEIQKHNNSKSTWLILHYKVYDLTKFLEEHPGGEEVLREQAGGDATENFEDVGHSTDARELSKTFIIGELHPDDRSKITKPSESIITTIDSNPSWWTNWLIPAISALFVALIYHLYTSEN

The data set covers variants of B1. To be noted: Bos taurus, pH 7, Thermal, Absorbance, Sodium phosphate 100 mM, structure 1CYO, whole UniProt chain shown.

Regarding MAEESSKAVKYYTLEEIQKHNNSKSTWLILHYKVYDLTKFLEEHPGGEEHLREQAGGDATENFEDVGHSTDARELSKTFIIGELHPDDRSKITKPSESIITTIDSNPSWWTNWLIPAISALFVALIYHLYTSEN [V50H], for the setting “77.6 °C”, the “ddG of mutation (higher = less stable)” value amounted to 1.39 kcal/mol.

MAEESSKAVKYYTLEEIQKHNNSKSTWLILHYKVYDLTKFLEEHPGGEEYLREQAGGDATENFEDVGHSTDARELSKTFIIGELHPDDRSKITKPSESIITTIDSNPSWWTNWLIPAISALFVALIYHLYTSEN [V50Y]: the “ddG of mutation (higher = less stable)” value by setting is: (66.7 °C) 1.53 kcal/mol; (77.6 °C) 1.55 kcal/mol.

With MAEESSKAVKYYTLEEIQKHNNSKSTWLILHYKVYDLTKFLEEHPGGEEELREQAGGDATENFEDVGHSTDARELSKTFIIGELHPDDRSKITKPSESIITTIDSNPSWWTNWLIPAISALFVALIYHLYTSEN [V50E], the “ddG of mutation (higher = less stable)” value (66.7 °C) came out at 2.68 kcal/mol and the “ddG of mutation (higher = less stable)” value (77.6 °C) is 2.06 kcal/mol.
